Reference: patent US20180162932A1 (ACADEMISCH MEDISCH CENTRUM, published 2018)
Several values for one entry are separate records, joined by “and”; a condition that tells them apart may be missing. Equal entries are not always repeated. Values belong to the molecule of their own block, whether it stands above or below them.

B5: human mature bone morphogenic protein 4 (ligand)
chain: KHHSQRARKKNKNCRRHSLYVDFSDVGWNDWIVAPPGYQAFYCHGDCPFPLADHLNSTNHAIVQTLVNSVNSSIPKACCVPTELSAISMLYLDEYDKVVLKNYQEMVVEGCGCR
notes: Recombinant, R&D Systems (314-BP-020); mature active dimer; also called BMP4; BMP-4
B7: mouse Noggin (other, UniProt P97466 28-232, looked up)
chain: QHYLHIRPAPSDNLPLVDLIEHPDPIFDPKEKDLNETLLRSLLGGHYDPGFMATSPPEDRPGGGGGPAGGAEDLAELDQLLRQRPSGAMPSEIKGLEFSEGLAQGKKQRLSKKLRRKLQMWLWSQTFCPVLYAWNDLGSRFWPRYVKVGSCFSKRSCSVPEGMVCKPSKSVHLTVLRWRCQRRGGQRCGWIPIQYPIISECKCSC

What was measured:
[1] = target: B5; assay: cell-based or functional assay
[2] = target: T1, mature bone morphogenic protein 2 (human, UniProt P12643 283-396); assay: cell-based or functional assay
[3] = target: B5; assay: SPR (IBIS MX96), VHH or control on chip, BMP injected
Protocol: (§1) In a first set of experiments, controls and VHHs (either as monomers or dimers) were coupled to SPR chips and the measurement of BMP affinities was obtained by injecting the different BMPs to the plate.
(§2) Serial dilutions (2.0-10 μg/ml) of purified VHHs were spotted on an amine-specific SensEye gold-film gel-type SPRchip (Ssens), using a Continuous Flow Microspotter (Wasatch Microfluidics, Salt Lake City, Utah, United States) as described (Lokate et al., 2007). BMP binding was analyzed on an IBIS MX96 (IBIS Technologies, Enschede, The Netherlands) instrument by performing injections with dilution series (0.05-2.0 μg/ml) of recombinant BMPs on the VHH-coated chip. In each injection, BMPs were injected and incubated for 8 min, followed by 15 min thorough washing with binding buffer (PBS+0.05% Tween20+0.05% sodium azide) to measure dissociation. Epitope binning was done by injecting VHH dilutions (2.0 μg/ml) over the chip, immediately after the dissociation step. Injections with blank binding buffer were used as reference. After each concatenated injection, the chip was regenerated with 10mM glycine-HCl, pH 2.0. Experimental data were processed with SPRintX software (IBIS Technologies) and kinetic parameters were determined using Scrubber2 software (BioLogic Software, Campbell, ACT, Australia). Binding constants were obtained by global fitting to a one-site binding model.

[4] = target: T2, human mature bone morphogenic protein 5 (human, UniProt P22003 340-454); assay: western blot of unreduced recombinant BMP, C4C4 as primary antibody
T2 construct: Often printed as BMPS in the text; also called BMP5; BMPS (so in the source)
T2 sequence: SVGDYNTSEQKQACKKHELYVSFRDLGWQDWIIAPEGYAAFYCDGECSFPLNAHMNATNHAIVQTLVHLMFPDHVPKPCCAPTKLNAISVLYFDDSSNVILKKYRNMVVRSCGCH
Protocol: To determine the different forms of BMP4, recombinant proteins and carcinoma cell lines lysate were used. Protein concentrations of cell lysates were determined using Pierce™ BCA Protein Assay Kit (Pierce Biotechnology, Rockford, Ill. USA), following the manufacturer's protocol. Equal amount of sample were loaded (between 8 and 30 μg/lane) on a 10% SDS-polyacrylamide gel and subsequently blotted onto PVDF transfer membranes. The membranes were blocked with blocking solution (5% Nonfatmilk+Tris-Buffered Saline with Tween®-20 (TBST) or 5% bovine serum albumin (BSA)+TBST) and subsequently incubated with the appropriate primary antibody and secondary antibody. Afterwards, membranes were washed and incubate with chemiluminescent solution (Pierce™ ECL subtract, Pierce Biotechnology, Rockford, Ill. USA) and visualized using ImageQuant LAS 4000 (GE Healthcare Life Science). […] Secondary antibodies include: HRP-anti-rabbit (1:200; Cat. No. P0448; Dako), HRP-anti-mouse (1:2000; Cat. No. P0447; Dako) and HRP-anti-llama (1:1000; Cat. No. ab112786; Abcam).

[5] = target: B5; assay: SPR, ratio of KD values
Protocol: as §1, §2

[6] = target: T2, human mature bone morphogenic protein 5; assay: SPR, VHH on chip, BMP injected
Protocol: as §2

[7] = target: T3, human mature bone morphogenic protein 6 (human, UniProt P22004 375-513); assay: SPR, VHH on chip, BMP injected
T3 construct: also called BMP6; BMP-6
T3 sequence: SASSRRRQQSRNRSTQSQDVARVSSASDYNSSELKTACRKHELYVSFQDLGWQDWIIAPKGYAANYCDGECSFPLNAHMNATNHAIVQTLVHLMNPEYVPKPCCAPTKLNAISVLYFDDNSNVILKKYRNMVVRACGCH
Protocol: as §2

[8] = target: T4, human mature bone morphogenic protein 7 (human, UniProt P18075 293-431); assay: SPR, VHH on chip, BMP injected
T4 construct: also called BMP7; BMP-7
T4 sequence: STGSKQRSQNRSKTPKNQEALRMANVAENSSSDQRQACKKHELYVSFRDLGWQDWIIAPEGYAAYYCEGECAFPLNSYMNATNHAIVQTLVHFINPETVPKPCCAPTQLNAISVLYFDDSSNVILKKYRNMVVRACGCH
Protocol: as §2

[9] = target: T1, mature bone morphogenic protein 2; assay: SPR (IBIS), VHH spotted on the chip, BMP2 injected
Protocol: as §1, §2

[10] = target: T3, human mature bone morphogenic protein 6; assay: summary of SPR results
[11] = target: B5; assay: titration ELISA of purified VHH on immobilized BMP4
[12] = target: B7; assay: SPR (IBIS MX96), VHH or control on chip, BMP injected
Protocol: as §1, §2

T1 sequence (P12643 283-396): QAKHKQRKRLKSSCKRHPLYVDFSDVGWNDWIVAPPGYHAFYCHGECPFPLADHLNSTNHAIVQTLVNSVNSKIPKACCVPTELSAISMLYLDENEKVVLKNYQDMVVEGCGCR

Molecule: anti-BMP4 R&D (Clone 66119, Mouse IgG2B, MAB757) (antibody)
percent inhibition of the BMP4-specific signal at 100 ng/ml, BRE-luciferase, C2C12 cells [1]: 30%

B1: C4C4 homo-bihead (designed binder)
chain: EVQLVESGGGLVQAGGSLRLSCAASGRTFSTYAMGWFRQAPGKEREFVAAISKGGGITYYSDSVRGRFTISKENAKNTVYLQMNSLKPEDTAVYYCAADPVSSVAKSPVAYPYWGQGTQVTVSSGGGGSGGGGSEVQLVESGGGLVQAGGSLRLSCAASGRTFSTYAMGWFRQAPGKEREFVAAISKGGGITYYSDSVRGRFTISKENAKNTVYLQMNSLKPEDTAVYYCAADPVSSVAKSPVAYPYWGQGTQVTVSS
notes: also called C4C4 dimer
Kd [3]: 0.0097 nM
IC50, BRE-luciferase, C2C12 cells [1]: ~600 pM and 1.3 ng/ml and 45 nM
fold increase in inhibition against monomer C4, BRE-luciferase, C2C12 cells [1]: 9 fold
binding result [4]: no binding (tested: 0.1 µg/ml primary antibody)
fold higher affinity than BMPR1a [5]: 70 fold
fold higher affinity than Noggin [5]: 10 fold

B4: VHH C4 (VHH)
VHH: EVQLVESGGGLVQAGGSLRLSCAASGRTFSTYAMGWFRQAPGKEREFVAAISKGGGITYYSDSVRGRFTISKENAKNTVYLQMNSLKPEDTAVYYCAADPVSSVAKSPVAYPYWGQGTQVTVSS
notes: Produced in E. coli periplasm with tags (anti-myc detection, TALON purification); also called C4 monomer; C4 monohead
EC50 (read off the curve) [11]: ~3 nM

Molecule: B5
Kd [12]: 0.091 nM

B6: C8C8 homo-bihead (designed binder)
chain: EVQLVESGGGLVQAGGSLRLSCAASGRTFRINDMGWYRQAPGKSRDMVARITSGGNTNYADSVKGRFTISRDNAKNTVYLQMNSLKPEDTAVYYCNADGLRFDSTRYRPFDSWGQGTQVTVSSGGGGSGGGGSEVQLVESGGGLVQAGGSLRLSCAASGRTFRINDMGWYRQAPGKSRDMVARITSGGNTNYADSVKGRFTISRDNAKNTVYLQMNSLKPEDTAVYYCNADGLRFDSTRYRPFDSWGQGTQVTVSS
IC50, BRE-luciferase, C2C12 cells [1]: ~0.45 nM
fold potency on BMP4 against BMP2, BRE-luciferase, C2C12 cells [1]: 16 fold
IC50, BRE-luciferase, C2C12 cells [2]: 1.21 nM

Molecule: B7
IC50, BRE-luciferase, C2C12 cells [1]: ~0.615 nM
IC50, BRE-luciferase, C2C12 cells [2]: ~2.5 nM

The next lines start with the values.

IC50, BRE-luciferase, C2C12 cells [1]: 0.54 nM
IC50, BRE-luciferase, C2C12 cells [2]: 1.6 nM
Molecule: human Noggin (from UniProt Q13253 28-232)

binding result [6]: no binding
binding result [7]: no binding
binding result [8]: no binding
binding result [9]: binds
B2: VHH C8 (VHH)
VHH: EVQLVESGGGLVQAGGSLRLSCAASGRTFRINDMGWYRQAPGKSRDMVARITSGGNTNYADSVKGRFTISRDNAKNTVYLQMNSLKPEDTAVYYCNADGLRFDSTRYRPFDSWGQGTQVTVSS
notes: also called C8 monomer

binding result [10]: binds
B3: VHH E7 (VHH)
VHH: EVQLVESGGGLVQAGGSLRLSCAASGSIRGFVAMAWYRQAPGKQREWVATVTNGGTLYGDSVKGRFTGSRDNAKNTVYLQMNSLKPEDTAVYYCALRQIGASGYDYWGQGTQVTVSS
notes: also called E7 monomer
